In the supplement of paper PMC11136658:

Test system: peptide library, one residue held at a place counted from the Y acceptor
Experiment: relative phosphorylation of the sub-library (ratio to the mean residue at this position); higher = residue favoured
How it was run: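 Peptide library mixtures, biotinylated and centred on Tyr, each fixed one residue at one position from −5 to +5. Purified recombinant kinases were incubated with them for 90 min in 384-well plates alongside 50 μM ATP and γ-32P-ATP, and the captured, rinsed peptides on streptavidin membranes were measured by phosphorimaging and ImageQuant. Normalization divided each position's intensities by the sum of its 18 randomized residues (16 for the Ser/Thr-free library) and multiplied by that number, so that values give phosphorylation relative to the mean randomized residue.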

Chain of INSR, construct: aa1110-end, human (P06213 1110-1382, looked up): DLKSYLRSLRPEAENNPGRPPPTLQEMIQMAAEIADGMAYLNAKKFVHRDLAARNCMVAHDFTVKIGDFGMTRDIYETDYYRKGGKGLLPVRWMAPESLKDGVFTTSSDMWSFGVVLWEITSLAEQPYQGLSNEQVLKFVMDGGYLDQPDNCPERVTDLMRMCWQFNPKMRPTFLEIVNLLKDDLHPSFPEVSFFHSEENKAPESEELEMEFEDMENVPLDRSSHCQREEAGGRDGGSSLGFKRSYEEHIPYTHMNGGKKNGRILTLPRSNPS
Chain of IRR, construct: aa945-end, human (P14616 945-1297, looked up): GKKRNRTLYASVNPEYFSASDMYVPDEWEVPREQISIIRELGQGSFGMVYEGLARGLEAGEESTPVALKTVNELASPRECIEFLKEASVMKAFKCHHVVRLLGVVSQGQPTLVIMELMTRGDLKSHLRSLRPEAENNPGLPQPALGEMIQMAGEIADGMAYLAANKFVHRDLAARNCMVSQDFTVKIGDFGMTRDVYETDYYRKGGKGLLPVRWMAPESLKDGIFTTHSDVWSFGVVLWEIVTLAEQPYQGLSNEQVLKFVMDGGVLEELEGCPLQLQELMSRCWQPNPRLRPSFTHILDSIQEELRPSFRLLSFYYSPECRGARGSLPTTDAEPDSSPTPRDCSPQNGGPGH

INSR, construct: aa1110-end, human (from UniProt P06213)
relative phosphorylation
Settings | at +1 | at +2 | at +3 | at +4 | at +5 | at -1 | at -2 | at -3 | at -4 | at -5
A fixed | 1.55 | 0.678 | 0.593 | 0.95 | 0.917 | 1.09 | 1.09 | 0.925 | 1.09 | 1.07
D fixed | 0.383 | 0.584 | 0.264 | 1.04 | 0.792 | 2.65 | 1.14 | 1.34 | 1.3 | 1.14
E fixed | 0.627 | 1.31 | 0.234 | 0.976 | 0.731 | 1.14 | 1.26 | 1.48 | 1.31 | 0.983
F fixed | 1.41 | 1.13 | 1.62 | 1.02 | 1.56 | 0.696 | 0.621 | 0.912 | 1.03 | 0.834
G fixed | 0.731 | 0.419 | 0.545 | 0.809 | 0.858 | 0.554 | 1.24 | 0.872 | 1.36 | 1.23
H fixed | 1.67 | 0.915 | 1.47 | 1.16 | 1.17 | 1.16 | 0.95 | 1.11 | 0.965 | 0.975
I fixed | 1.21 | 1.16 | 1.92 | 0.902 | 0.978 | 1.04 | 0.87 | 0.616 | 0.817 | 0.935
K fixed | 0.275 | 0.602 | 0.475 | 0.951 | 0.919 | 0.27 | 0.8 | 0.861 | 0.835 | 1.11
L fixed | 0.986 | 1.35 | 1.61 | 0.841 | 1.14 | 0.981 | 0.957 | 0.867 | 0.879 | 0.913
M fixed | 2.41 | 1.53 | 1.74 | 1.16 | 1.08 | 0.789 | 0.743 | 0.929 | 0.804 | 0.976
N fixed | 0.312 | 0.941 | 0.347 | 0.762 | 0.813 | 2.16 | 1.25 | 1.51 | 0.939 | 1.22
P fixed | 0.317 | 0.706 | 0.421 | 0.704 | 1.05 | 1.04 | 1.29 | 0.905 | 1.17 | 0.956
Q fixed | 0.805 | 0.811 | 0.46 | 1.19 | 0.806 | 0.747 | 1.22 | 1.06 | 1.22 | 1.1
R fixed | 0.227 | 0.868 | 0.706 | 0.953 | 1.02 | 0.266 | 0.831 | 0.913 | 0.913 | 1.13
S fixed | 0.926 | 0.804 | 0.534 | 1.07 | 1.04 | 0.901 | 1.18 | 1.09 | 0.814 | 0.896
T fixed | 0.946 | 0.781 | 0.673 | 0.843 | 0.84 | 0.97 | 1.08 | 0.941 | 0.731 | 0.828
V fixed | 1.45 | 1.08 | 1.13 | 0.968 | 0.937 | 0.989 | 0.796 | 0.698 | 0.746 | 0.798
W fixed | 1.76 | 2.34 | 3.26 | 1.69 | 1.35 | 0.558 | 0.684 | 0.978 | 1.08 | 0.902
pThr fixed | 1.28 | 0.717 | 0.229 | 0.55 | 0.612 | 1.28 | 1.01 | 1.11 | 1.09 | 0.769
pTyr fixed | 1.36 | 2.45 | 0.487 | 1.48 | 0.585 | 4.11 | 1.68 | 1.51 | 1.28 | 0.991

IRR, construct: aa945-end, human (from UniProt P14616)
relative phosphorylation
Settings | at +1 | at +2 | at +3 | at +4 | at +5 | at -1 | at -2 | at -3 | at -4 | at -5
A fixed | 1.2 | 0.697 | 0.453 | 0.79 | 0.702 | 0.948 | 1.06 | 0.957 | 0.997 | 1.03
D fixed | 0.718 | 0.923 | 0.342 | 1.35 | 0.583 | 2.42 | 1.56 | 1.39 | 1.41 | 1.13
E fixed | 1.07 | 1.49 | 0.322 | 1.26 | 0.575 | 1.66 | 1.53 | 1.53 | 1.28 | 1.03
F fixed | 1.4 | 1.19 | 1.51 | 1.06 | 2.09 | 0.666 | 0.685 | 0.903 | 0.854 | 0.904
G fixed | 0.637 | 0.368 | 0.424 | 0.931 | 0.838 | 0.608 | 1.14 | 0.972 | 1.08 | 0.998
H fixed | 1.85 | 1.07 | 1.37 | 1.24 | 1.21 | 1.08 | 0.901 | 1.13 | 1.07 | 1.09
I fixed | 0.849 | 0.881 | 1.73 | 0.828 | 1.03 | 0.842 | 0.63 | 0.618 | 0.772 | 0.87
K fixed | 0.399 | 0.686 | 0.433 | 0.906 | 0.693 | 0.35 | 0.977 | 0.864 | 1.05 | 1.28
L fixed | 1.19 | 1.32 | 1.6 | 0.807 | 0.985 | 0.916 | 0.705 | 0.717 | 0.742 | 0.825
M fixed | 2.18 | 1.44 | 2.06 | 0.975 | 1.06 | 0.75 | 0.803 | 0.779 | 0.853 | 0.84
N fixed | 0.618 | 0.911 | 0.484 | 1.14 | 0.844 | 2.07 | 1.37 | 1.45 | 1.14 | 1.13
P fixed | 0.423 | 0.796 | 0.374 | 0.892 | 1.37 | 1.07 | 1.24 | 0.834 | 0.957 | 0.978
Q fixed | 0.998 | 1.02 | 0.546 | 1.04 | 0.867 | 0.911 | 1.18 | 1.24 | 1.19 | 1.12
R fixed | 0.353 | 0.796 | 0.665 | 0.918 | 1.06 | 0.386 | 0.992 | 1.16 | 1.05 | 1.19
S fixed | 0.835 | 0.771 | 0.509 | 0.977 | 0.705 | 0.856 | 1.06 | 1.05 | 0.847 | 0.88
T fixed | 0.867 | 0.801 | 0.741 | 1.07 | 0.781 | 0.945 | 1.05 | 0.996 | 0.876 | 0.803
V fixed | 0.906 | 0.945 | 1.43 | 0.85 | 0.723 | 0.757 | 0.651 | 0.647 | 0.776 | 0.806
W fixed | 1.21 | 1.47 | 2.26 | 1.01 | 1.35 | 0.576 | 0.576 | 0.797 | 0.781 | 0.766
pThr fixed | 1.57 | 1.06 | 0.323 | 0.922 | 0.584 | 1.66 | 1.23 | 1.27 | 1.2 | 1.07
pTyr fixed | 1.06 | 1.64 | 0.393 | 1.12 | 0.513 | 2.83 | 1.35 | 1.26 | 0.928 | 1.02
